This is an account of results in US9526713B2, “Use of dencichine in preparation of drug for treating thrombocytopenia” (KUNMING SHENGHUO PHARMACEUTICAL (GROUP) CO., LTD., priority 2013, dated 2016).

Read-outs that look alike come from different tables or passages of the source.

The subject of data set [1] is ITP model mice. The format is in vivo, BALB/C mice. The conditions noted are these: 5 mg/(kg·d) intragastric, 14 days; end of experiment. From the text:
(§1) Health BALB/C mice (body weight 18˜22 g) are randomly divided into six groups with 12 mice for each group:
Blank group, Model group, Prednisone Acetate Group, Dencichine (high dose, middle dose, and low dose) groups.
Modeling method: blood was taken from orbital vein of BALB/C Mice, followed by EDTA-Na2 Anticoagulation, and then platelets are separated and washed. The prepared platelet suspension solution was mixed uniformly with equal amount of complete Freund's adjuvant and incomplete Freund's adjuvant respectively. In the first week, antigen containing complete Freund's adjuvant is subcutaneously injected into hind paw, back and groin of the guinea pig. Injections are done for 4 times in total, with 5 spots for each injection and 100 μl for each spot. In the 6th week, non-anticoagulated whole blood was taken from the guinea pigs, and was centrifuged for 10 min under 3000 r/min to produce a supernate, which is the anti-mouse platelet serum (GP-APS) of the guinea pigs. The supernate was placed in a water bath (56° C.) for 30 min for complement inactivation, and then the inactivated supernate was diluted with normal saline, followed by test of antibody titers by agar diffusion method, and finally was stored in a refrigerator at −20° C. for later use.
(§2) Except the normal group, the mice of the remain five groups are injected with anti-mouse platelet serum (APS) of the guinea pig with a dose of 100 μl/20 g body weight, via intraperitoneal injection, on the 1st, 3rd, 5th, 7th, 9th, 11th and 13th day of the experiment.
(§3) The mice of each group are given intragastric administration from the first day. […] The mice of the prednisone acetate group are given intragastric administration of suspension of prednisone acetate at 5 mg/(kg·d). The mice of other groups are given intragastric administration of same volumetric of normal saline at 0.2 ml/20 g body weight. Intragastric administration for once each day, and continuous administration for 14 days.
Observation of the Subcutaneous Purpura:
Class I, minor bleeding are found at injection sites, and hemorrhagic spots are interspersed at other sites;
Class II, overt bleeding are found at injection sites, and ecchymosis and petechiae are found at other sites;

Data set [2] is classed as in vivo, BALB/C mice. The settings on record: 5 mg/(kg·d) intragastric. The method, then: as §1, §2, §3
The weights of mice of each group are respectively measured before modeling, on 7th test day, and on 14th test day.

The test system of data set [3] is ITP model mice. The format is in vivo, BALB/C mice. The settings on record: 5 mg/kg intragastric. The method, then:
as §1, §2
The mice of each group are given intragastric administration from the first day. The mice of the dencichine high dose, middle-dose and low dose groups are given intragastric administration at […] respectively. The mice of the prednisone acetate group are given intragastric administration of suspension of prednisone acetate at 5 mg/(kg·d). The mice of other groups are given intragastric administration of same volumetric of normal saline at 0.2 ml/20 g body weight. Intragastric administration for once each day, and continuous administration for 14 days.
20 μl Blood was collected from orbital veins of each mouse of each group before Modeling and on 14th test day respectively, and dropped into anticoagulative tubes, then platelet count was detected by an automated blood analyzers.

The subject of another data set is female mouse. The settings on record: Zhao Guoqiang et al., 1984; cited from earlier work.
Data set [4] concerns rats with thrombocytopenia caused by carboplatin. Put plainly: Platelet count of rats with thrombocytopenia caused by carboplatin, different prophylactic administration time. The format is in vivo, rat.
The subject of data set [5] is rats suffering thrombopenia induced by carboplatin. Description: Platelet count of rats suffering thrombopenia induced by multiple injections of carboplatin. The format is in vivo, Wistar rats. The settings on record: 260 μg/kg s.c., carboplatin model. The method, then:
(§4) 81 rats are prepared and randomly divided into eight groups: • blank control group, • high-dose group A (4 mg/kg, intraperitoneal injection, non modeling), • model group (40 mg/kg, tail vein injection), • interleukin-11 group (260 μg/kg, subcutaneous injection), • high dose group B (4 mg/kg, intraperitoneal injection, modeling), • high dose group (4 mg/kg, intraperitoneal injection), • middle dose group (1 mg/kg, intraperitoneal injection), and • low dose group (0.25 mg/kg, intraperitoneal injection),
(§5) wherein, the Model group has 11 rats, and the other groups has 10 rats respectively. Before the experiment, the animals are asked to adapt the environment for 2 days, and then blood is taken from their tails for detecting hematological index.
(§6) After administration for 10 days, blood is taken from tails of rats from blank control group, high-dose group A, and positive drug group respectively for detecting hematological index.
(§7) Thereafter, all animals, except for those of blank group and high-dose group A, are individually injected with carboplatin (40 mg/kg) for modeling, and followed by successive administration for 15 days. During these 15 days, the rats of high-dose group A and high dose group B are stopped from administration, and taken blood from the tail on 5th day, 10th day and 15th day after the modeling respectively for detecting hematological indices. After 15th day of modeling, carboplatin (40 mg/kg) is injected again for a second modeling, and all the groups take successive administration according to the foregoing method, once a day for successive 10 days. Before each hematological indices detection, animals are weighed respectively. Taking the tails' blood of rats on 5th day after the second injection of carboplatin for detecting hematological indices, and taking the tails' blood of rats on 10th day after the second injection of carboplatin for detecting the indices of hematology, reticulocytes and coagulation; and weighing animals and killing them; and weighing liver, thymus, spleen and adrenal gland taken from the dead rats, and calculating out viscera indices; further taking out marrow for doing pathological examination.

Data set [6] can be described thus: Body weight of rats suffering thrombopenia induced by carboplatin. The format is in vivo, Wistar rats. The settings on record: for body weight: 260 μg/kg s.c., carboplatin model. As to the method: as §4, §5, §6, §7
Data set [7] can be described thus: Organ index of rats suffering thrombopenia induced by carboplatin. The format is in vivo, Wistar rats. The method, then:
as §4, §7

[8] abbreviates: 5th day after first injection of carboplatin.
The mark [9] stands for this setting: 5th day after second injection of carboplatin.
Setting [10] is: 10th day after first injection of carboplatin.
Setting [11] is: 10th day after second injection of carboplatin.
Where [12] appears, read: 15th day after first injection of carboplatin.
Setting [13] is: prophylactic administration for 10 days.
Setting [14] is: 260 μg/kg s.c., carboplatin model.

In the case of `CC(=O)OCC(=O)[C@@]1(O)CC[C@H]2[C@@H]3CCC4=CC(=O)C=C[C@]4(C)[C@H]3C(=O)C[C@@]21C` [Prednisone acetate, Prednisone Acetate, reference compound], the “Subcutaneous purpura, bleeding degree +” value with ITP model mice [1] is 6 number of mice. For the same molecule, the “Subcutaneous purpura, bleeding degree ++” value with ITP model mice [1] is listed as 2 number of mice. In addition, the “Subcutaneous purpura, bleeding degree +++” value in the data set on ITP model mice [1] is recorded as 0 number of mice. Also, in the data set with ITP model mice [1], the “Subcutaneous purpura, bleeding degree −” value is reported as 0 number of mice. For the same molecule, the body weight in data set [2] (Day 0) is 19.8 ± 2.1 g; in data set [2] (Day 7), 19.5 ± 1.8 g; in data set [2] (Day 14) it was 20.6 ± 1.7 g. Besides, the platelet count in the data set on ITP model mice [3] (Before Modeling) is listed as 756.9 ± 130.1 ×10^9/L; in the data set with ITP model mice [3] (Day 14), 579.0 ± 70.7 ×10^9/L.

Take `N[C@H](CNC(=O)C(=O)O)C(=O)O` [β-N-oxalyl-D-α, β-diaminopropionic acid, reference compound]: the “effect on the hemostasis and increase of platelet count” value with female mouse is given as “significant effect”.

B1: Interleukin-11: Recombinant human interleukin-11 for injection, sterile lyophilized preparation, Qilu Pharmaceutical; positive drug (protein, UniProt P20809 22-199, looked up)
Interleukin-11: PGPPPGPPRVSPDPRAELDSTVLLTRSLLADTRQLAAQLRDKFPADGDHNLDSLPTLAMSAGALGALQLPGVLTRLRADLLSYLRHVQWLRRAGGSSLKTLEPELGTLQARLDRLLRRLQLLMSRLALPQPPPDPPAPPLAPPSSAWGGIRAAHAILGGLHLTLDWAVRGLLLLKTRL
As to B1, the “platelet count compared with that of model group” value in data set [4] (prophylactic administration for 3 days) is listed as “no significant difference”; in data set [4] (prophylactic administration for 5 days and 7 days), “increase the platelet count”. In addition, the platelet count is given as 820.7 ± 155.13 ×10^9/L in data set [4] (prophylactic administration for 3 days, after prophylactic administration); 736.3 ± 175.56 ×10^9/L in data set [4] (prophylactic administration for 3 days, initial value); 88.5 ± 51.49 ×10^9/L in data set [4] (prophylactic administration for 3 days, injection of carboplatin for 10 days); 759.5 ± 145.34 ×10^9/L in data set [4] (prophylactic administration for 5 days, after prophylactic administration); 724.0 ± 178.87 ×10^9/L in data set [4] (prophylactic administration for 5 days, initial value); 178.3 ± 57.08 ×10^9/L in data set [4] (prophylactic administration for 5 days, injection of carboplatin for 10 days). For the same molecule, the platelet count in data set [4] (prophylactic administration for 7 days, after prophylactic administration) is on record as 860.5 ± 113.92 ×10^9/L; in data set [4] (prophylactic administration for 7 days, initial value), 732.3 ± 197.06 ×10^9/L; in data set [4] (prophylactic administration for 7 days, injection of carboplatin for 10 days), 179.5 ± 26.76 ×10^9/L; in data set [5] (setting [8]) it was 564.0 ± 126.1 ×10^9/L; in data set [5] (setting [9]), 953.7 ± 265.8 ×10^9/L; in data set [5] (setting [10]) it was 234.6 ± 77.9 ×10^9/L. For the same molecule, the platelet count in data set [5] (setting [11]) is 290.7 ± 180.9 ×10^9/L; in data set [5] (setting [12]), 1183.3 ± 92.5 ×10^9/L; in data set [5] (before experiment), 625.4 ± 124.92 ×10^9/L; in data set [5] (setting [13]), 761.6 ± 226.76 ×10^9/L. Further, the body weight was 267.6 ± 41.79 g in data set [6] (setting [8]); 294.6 ± 47.61 g in data set [6] (setting [9]); 287.1 ± 41.57 g in data set [6] (setting [10]); 291.7 ± 52.46 g in data set [6] (setting [11]); 298.3 ± 44.22 g in data set [6] (setting [12]); 186.7 ± 9.63 g in data set [6] (before experiment). This molecule showed a body weight in data set [6] (setting [13]) of 268.8 ± 32.65 g. Besides, the “body weight and state” value in data set [6] (280 μg/kg subcutaneous injection, beginning of the experiment) is “obvious body weight loss”. For the same molecule, the “organ index, Adrenal gland” value in data set [7] (setting [14]) worked out at 0.04 ± 0.01 g/100 g body weight. Besides, the “organ index, Liver” value in data set [7] (setting [14]) was 4.10 ± 0.30 g/100 g body weight. Further, in data set [7] (setting [14]), the “organ index, Spleen” value is 0.39 ± 0.05 g/100 g body weight. Further, the “organ index, Thymus gland” value in data set [7] (setting [14]) is 0.14 ± 0.05 g/100 g body weight. Further, the “index of livers, spleens, suprarenal glands compared with the blank control group” value in data set [7] (interleukin-11 group) is “obvious increases”.
